{"source": "paper PMC11633383", "about": "“Role of VapBC4 toxin-antitoxin system of Sulfolobus acidocaldarius in heat stress adaptation” (mBio, 2024)", "binders": {"B1": {"name": "VapB4 antitoxin (Saci_1812) with a C-terminal histidine tag (natural protein, Sulfolobus acidocaldarius DSM639, UniProt Q4J7W4 1-77, looked up)", "chain": "MDSSGYVTISAKVPRELKELMDKYGIKPGPVIRKALEEEVRRRAIQELEKELKDLKEKSQISDEDVARLIREDRESR", "modifications": "TRITC (Alexa-532) fluorescent probe, site not stated, F/P ratio approximately 0.5 (in the FRET assay only)", "notes": "Unlabelled in the RNase neutralisation assay, TRITC-labelled in FRET; also called pAG154; source: E. coli BL21(DE3)-RIL, purified (Ni2+-NTA, dialysis)"}}, "target": "T1, VapC4 toxin (Saci_1813) with a C-terminal histidine tag (Sulfolobus acidocaldarius DSM639, UniProt Q4J7W2 1-140, FITC (Alexa-488) fluorescent probe, site not stated, F/P ratio approximately 0.5 (in the FRET assay only))", "T1 construct": "also called Saci VapC4; pAG153; not shown: His tag, C-terminal, kept", "T1 sequence (looked up)": "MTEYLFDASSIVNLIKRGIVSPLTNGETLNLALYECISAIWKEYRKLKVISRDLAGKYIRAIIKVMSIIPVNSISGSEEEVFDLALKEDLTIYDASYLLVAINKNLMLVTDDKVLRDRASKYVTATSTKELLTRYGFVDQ", "test": "FRET or BRET; FITC-labelled VapC4 (100 nM, donor) titrated with TRITC-labelled VapB4 (25-2,000 nM, acceptor); excitation 495 nm, FITC emission at 520 nm, 60°C; fit to a hyperbolic binding equation", "details": "both partners purified"}
{"binder": "B1", "values": [{"measurement": "Kd", "value": "40 ± 2.2", "unit": "nM"}]}
